Biological target: ZFHD1 (Zif268 zinc fingers-Oct1 homeodomain chimera) fused to 3xFKBP (UniProt P08046+P14859)
Assay: cell_activity
Conditions: SEAP reporter in HT1080 cells; rapamycin-dependent, peak at 5 nM; no SEAP without either fusion

Chain of ZFHD1 (Zif268 zinc fingers-Oct1 homeodomain chimera) fused to 3xFKBP (P08046 whole entry, change not shown, chain 1 of 2, the tested form may be a part): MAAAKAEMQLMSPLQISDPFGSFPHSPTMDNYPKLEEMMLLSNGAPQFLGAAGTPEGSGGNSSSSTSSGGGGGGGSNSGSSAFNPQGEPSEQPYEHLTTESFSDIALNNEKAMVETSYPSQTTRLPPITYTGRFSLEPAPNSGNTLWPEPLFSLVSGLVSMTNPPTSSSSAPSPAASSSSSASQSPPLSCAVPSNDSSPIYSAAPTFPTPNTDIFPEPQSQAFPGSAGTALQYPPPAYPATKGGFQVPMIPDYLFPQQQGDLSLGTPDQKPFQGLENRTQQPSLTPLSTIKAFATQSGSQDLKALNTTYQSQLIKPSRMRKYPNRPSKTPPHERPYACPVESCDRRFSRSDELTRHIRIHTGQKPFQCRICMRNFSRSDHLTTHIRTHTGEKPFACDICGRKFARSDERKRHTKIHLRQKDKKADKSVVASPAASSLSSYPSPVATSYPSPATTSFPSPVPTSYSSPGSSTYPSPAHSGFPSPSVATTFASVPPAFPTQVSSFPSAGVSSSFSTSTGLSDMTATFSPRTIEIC
Chain of ZFHD1 (Zif268 zinc fingers-Oct1 homeodomain chimera) fused to 3xFKBP (P14859 whole entry, change not shown, chain 2 of 2, the tested form may be a part): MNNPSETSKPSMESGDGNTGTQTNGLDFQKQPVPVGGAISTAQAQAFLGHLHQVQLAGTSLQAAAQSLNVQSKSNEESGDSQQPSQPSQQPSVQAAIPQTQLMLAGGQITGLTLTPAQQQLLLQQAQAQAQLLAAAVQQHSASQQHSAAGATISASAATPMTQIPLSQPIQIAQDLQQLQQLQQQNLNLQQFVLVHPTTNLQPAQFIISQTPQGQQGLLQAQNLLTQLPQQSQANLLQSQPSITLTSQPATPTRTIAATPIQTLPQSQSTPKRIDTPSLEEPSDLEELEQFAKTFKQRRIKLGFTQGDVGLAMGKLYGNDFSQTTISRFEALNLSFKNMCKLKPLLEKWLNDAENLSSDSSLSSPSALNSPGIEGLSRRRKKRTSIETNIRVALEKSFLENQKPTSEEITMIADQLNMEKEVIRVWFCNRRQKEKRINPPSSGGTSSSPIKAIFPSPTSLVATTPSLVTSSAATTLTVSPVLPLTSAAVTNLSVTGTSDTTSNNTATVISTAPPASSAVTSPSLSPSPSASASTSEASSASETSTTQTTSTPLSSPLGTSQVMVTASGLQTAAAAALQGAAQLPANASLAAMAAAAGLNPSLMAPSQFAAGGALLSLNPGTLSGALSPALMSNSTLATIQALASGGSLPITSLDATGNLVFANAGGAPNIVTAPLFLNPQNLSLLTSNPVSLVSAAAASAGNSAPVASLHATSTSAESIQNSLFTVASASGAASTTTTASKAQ

In the case of “GCTAGCTAATGATGGGCGCTCGAGTAATGATGGGCGGTCGACTAATGATGGGCGCTCGAGTAATGATGGGCGTCTAGCTAATGATGGGCGCTCGAGTAATGATGGGCGGTCGACTAATGATGGGCGCTCGAGTAATGATGGGCGTCTAGCTAATGATGGGCGCTCGAGTAATGATGGGCGGTCGACTAATGATGGGCGCTCGAGTAATGATGGGCGTCTAGA (double strand) [12x ZFHD1 binding sites (pZHWTx12)]”, the activity is reported as greater than 1000 fold.
